Laboratory results taken from patent US20230257454A1 (STAIDSON BEIJING BIOPHARMACEUTICALS, published 2023).
Like-named read-outs stand apart in the source and are kept apart here.

Legend:
human recombinant C5a = target: T1, human recombinant C5a (human, UniProt P01031 678-751); assay: ELISA, plate coated with human rC5a, scFv titrated, OD410
T1 construct: Full-length human C5a; also called rC5a; human C5a
T1 sequence: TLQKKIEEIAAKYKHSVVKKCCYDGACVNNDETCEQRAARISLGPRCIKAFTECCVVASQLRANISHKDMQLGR
Experimental: Monoclonal scFv antibodies were selected and subjected to ligand binding assays. The binding assay was designed to identify scFv antibodies that bound human recombinant C5a or endogenous C5a. Briefly, a 96-well plate was coated with human rC5a or eC5a in PBS at 0.1 µg/well and left overnight at 4° C. Before loading the scFv antibodies, the plates were washed with TBST, blocked for 1-2 hours at 37° C. using 5% milk and washed again with TBST. Each scFv sample was first diluted to 10 µg/mL, and 150 µL was added to the first row of wells. The 10 µg/mL scFv samples were then serially diluted at a 1:3 ratio and added to the remaining wells. After incubating for 1 hour at 37° C., followed by washing with TBST 6 times, 100µl of the primary antibody and secondary antibody mixture (mouse anti-flag (1:2500) and anti-mouse FC-AP (1:2000)) was added to each well. After incubation for 1 hour under 37° C., the plate was washed 3 times using TBST. pNPP was then added at 50 µL/well and incubated for 10-20 minutes at 37° C. 50 µL 3 M NaOH was used to stop the reaction. The ELISA results (OD410) were then analyzed and the binding curves were generated by PRISM.

[1] = target: T2, human C5a (source not stated) (human, UniProt P01031 678-751); assay: cell-based or functional assay
T2 sequence: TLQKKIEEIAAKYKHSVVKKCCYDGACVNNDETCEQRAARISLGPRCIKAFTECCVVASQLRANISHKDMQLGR

[2] = target: T2, human C5a (source not stated); assay: cell-based or functional assay; remark: listed apart in the source
C5a-T33A [3] = target: T3, C5a-T33A; assay: ELISA on the coated C5a protein, antibody titrated, OD410
T3 single chain: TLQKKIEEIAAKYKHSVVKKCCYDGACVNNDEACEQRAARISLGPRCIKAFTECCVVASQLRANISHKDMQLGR

C5a-R40A [4] = target: T4, C5a-R40A; assay: as above
T4 single chain: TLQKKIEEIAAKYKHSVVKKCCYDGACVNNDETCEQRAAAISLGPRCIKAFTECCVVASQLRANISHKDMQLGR

C5a-E32A = target: T5, C5a-E32A; assay: as above
T5 single chain: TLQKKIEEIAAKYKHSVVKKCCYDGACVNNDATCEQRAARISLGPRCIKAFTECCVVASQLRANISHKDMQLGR

C5a-Q36A [5] = target: T6, C5a-Q36A; assay: as above
T6 single chain: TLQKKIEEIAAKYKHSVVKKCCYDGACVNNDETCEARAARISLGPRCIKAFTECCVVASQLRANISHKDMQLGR

[6] = target: T7, native full-length human complement component C5 (human, UniProt P01031 19-673; P01031 678-1676); assay: SPR (Biacore T200), antibody on CM5 chip, antigen 0-10 nM; SPR (Biacore T200), Cab05-IgG4 on CM5 chip, C5 at 0-10 nM: no signal, given only as a lower bound on Kd
T7 construct: mature; The native protein has two disulfide-linked chains (alpha and beta) made from one precursor; also called human native C5
Experimental: (§1) The affinities for eC5a and c5 at various concentrations were measured. […] The concentrations of 0.625 and 0 nM were repeated once. Using the SPR technology, the association and dissociation rates were measured, and binding affinity was determined.

human endogenous C5a = target: T8, human endogenous C5a (human, UniProt P01031 678-751, limits assumed); assay: SPR (Biacore T200), antibody on CM5 chip, antigen 0-10 nM
T8 construct: Endogenous human C5a; also called eC5a
T8 sequence: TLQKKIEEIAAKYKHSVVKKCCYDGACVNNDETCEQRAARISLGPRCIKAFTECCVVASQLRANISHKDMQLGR
Experimental: as §1

[7] = target: T7, native full-length human complement …; assay: ELISA, plate coated with human native C5, full-length antibody titrated, OD410
C5a-T33A [8] = target: T3, C5a-T33A; assay: ELISA on the coated C5a protein, antibody titrated, OD410
C5a-R40A [9] = target: T4, C5a-R40A; assay: as above
C5a-Q36A [10] = target: T6, C5a-Q36A; assay: as above
[11] = target: T7, native full-length human complement …; assay: SPR (Biacore T200), antibody on CM5 chip, antigen 0-10 nM
Experimental: as §1

T7 sequence (P01031 19-673 limits assumed, one chain of several): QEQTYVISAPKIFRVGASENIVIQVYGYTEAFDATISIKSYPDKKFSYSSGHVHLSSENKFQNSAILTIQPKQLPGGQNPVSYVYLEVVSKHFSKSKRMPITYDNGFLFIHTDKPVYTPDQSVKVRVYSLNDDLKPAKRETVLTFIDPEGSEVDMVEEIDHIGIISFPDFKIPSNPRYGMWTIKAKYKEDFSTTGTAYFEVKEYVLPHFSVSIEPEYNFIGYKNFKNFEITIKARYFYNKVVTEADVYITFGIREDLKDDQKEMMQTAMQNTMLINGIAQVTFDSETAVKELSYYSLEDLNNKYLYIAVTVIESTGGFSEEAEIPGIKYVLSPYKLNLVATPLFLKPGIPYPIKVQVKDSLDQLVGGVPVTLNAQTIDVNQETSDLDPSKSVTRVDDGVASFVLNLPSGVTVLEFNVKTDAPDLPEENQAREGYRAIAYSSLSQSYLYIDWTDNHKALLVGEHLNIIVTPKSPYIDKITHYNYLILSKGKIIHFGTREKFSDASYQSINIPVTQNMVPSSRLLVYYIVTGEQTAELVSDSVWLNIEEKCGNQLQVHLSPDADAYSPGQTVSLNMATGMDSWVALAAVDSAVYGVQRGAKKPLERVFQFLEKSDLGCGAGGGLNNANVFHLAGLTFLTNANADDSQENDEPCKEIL

B1: Cab05 scFv (scFv, V domains shown)
VH: EMQLVESGGGLVQPGGSLRLSCAASGFTFSDYYMQWVRQAPGKGPEWVGLIRNKAVGGTTQYAASVKGRFTISRDDSKNSVYLQMNSLKTEDTAVYYCVSRAGPPGLSWGQGVLVTVSS
VL: DIVMTQSPLSLPVTPGEPASISCRSSQSLLASDGYNYIDWYLQKPGQSPQLLIYGGSNRASGVPDRFSGSGSGTDFTLKISRVEAEDVGVYFCLQHRALPPTFGQGTKLEIK
notes: scFv
- EC50 (read off the curve) (human recombinant C5a): ~0.03 µg/mL
- ROS IC50 [1]: 1560 pM
- ROS IC50 [2]: 1560 pM

B2: Cab44-IgG1 (antibody, V domains shown)
VH: EVQLVESGGGLVQPGGSLRLSCAASGFTFSNYYIQWVRQAPGKGPEWVGLIRNKAIGETTEFAASVKGRFTISRDDSKNSVYLQMNSLKTEDTAVYYCAGRLGPPGLTWGQGVLVTVSS
VL: DIVMTQSPLSLPVTPGEPASISCRSSQSLLATDGYEYLDWYLQKPGQSPQLLIYGASNRASGVPDRFSGSGSGTDFTLKISRVEAEDVGVYYCLQHKALPPTFGQGTKLEIK
notes: Full-length human IgG1
- binding result (C5a-T33A [3]): binds
- binding result (C5a-R40A [4]): binds
- binding result (C5a-E32A): binds
- binding result (C5a-Q36A [5]): binds
- ROS IC50 [2]: 510 pM

B3: Cab05-IgG4 (antibody, V domains shown)
VH: EMQLVESGGGLVQPGGSLRLSCAASGFTFSDYYMQWVRQAPGKGPEWVGLIRNKAVGGTTQYAASVKGRFTISRDDSKNSVYLQMNSLKTEDTAVYYCVSRAGPPGLSWGQGVLVTVSS
VL: DIVMTQSPLSLPVTPGEPASISCRSSQSLLASDGYNYIDWYLQKPGQSPQLLIYGGSNRASGVPDRFSGSGSGTDFTLKISRVEAEDVGVYFCLQHRALPPTFGQGTKLEIK
notes: Full-length human IgG4 with a human kappa or lambda light chain constant domain
- Kd [6]: > 100000 pM
- Kd (human endogenous C5a): 105 pM
- koff (human endogenous C5a): 4.22e-05 s⁻¹
- kon (human endogenous C5a): 402000 M⁻¹ s⁻¹
- EC50 (read off the curve) [7]: ~0.03 µg/mL

B4: Cab45-IgG1 (antibody, V domains shown)
VH: EVQLVESGGGLVQPGGSLRLSCAASGFTFSDYYIQWVRQAPGKGPEWVGLIRNKAVGGTTTYAASVKGRFTISRDDSKNSAYLQMNSLKTEDTAVYFCVSRAGPPGLSWGQGVLVTVSS
VL: DIVMTQSPLSLPVTPGEPASISCRSSQNLLATDGYTYLDWYLQKPGQSPQLLIYGGSKRASGVPDRFSGSGSGTDFTLKISRVEAEDVGVYYCLQHRALPPTFGQGTKLEIK
notes: Full-length human IgG1
- binding result (C5a-T33A [8]): binds
- binding result (C5a-R40A [9]): binds
- binding result (C5a-Q36A [10]): binds
- ROS IC50 [2]: 640 pM

B5: INab308 (antibody, V domains shown)
VH: QVQLQQSGPQLVRPGTSVKISCKASGYSFTTFWMDWVKQRPGQGLEWIGRIDPSDSESRLDQRFKDRATLTVDKSSSTVYMQLSSPTSEDSAVYYCARGNDGYYGFAYWGQGTLVTVSS
VL: DIVLTQSPASLAVSLGQRATISCKASQSVDYDGDSYMKWYQQKPGQPPKLLIYAASNLQSGIPARFSGSGSGTDFTLNIHPVEEEDAATYYCQQSNEDPYTFGGGTKLEIK
- Kd [11]: 743 pM
- koff [11]: 0.000218 s⁻¹
- kon [11]: 293000 M⁻¹ s⁻¹
